According to the supplement of paper PMC9170038:

Key:
Details in all cases: FMN input: 0 or 200 uM; Eterna round: R93 (includes R88 designs)
[1] = system: MS2 coat protein; test: apparent KD of MS2 coat protein, switch ON state; designed switch direction (-1 OFF switch, 1 ON switch): 1; higher = weaker reporter binding
Procedure, shortened: (§1)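 The buffer was 100 mM Tris-HCl pH 7.5 with 80 mM KCl and 4 mM MgCl2, used without or with constant ligand. In it, RNA switches transcribed on-chip from Illumina sequencing clusters were titrated with SNAP-549-labelled MS2 coat protein in twofold steps from 0.7 or 1.5 nM to 3 µM. Apparent KD for each design is the median of its normalised cluster binding-curve fits.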

[2] = system: MS2 coat protein; test: apparent KD of MS2 coat protein, switch OFF state (with FMN for OFF switches, without FMN for ON switches); designed switch direction (-1 OFF switch, 1 ON switch): 1; higher = weaker reporter binding
Procedure, shortened: as §1

[3] = system: MS2 coat protein; test: apparent KD of MS2 coat protein, switch ON state; designed switch direction (-1 OFF switch, 1 ON switch): -1; higher = weaker reporter binding
Procedure, shortened: as §1

[4] = system: MS2 coat protein; test: apparent KD of MS2 coat protein, switch OFF state (with FMN for OFF switches, without FMN for ON switches); designed switch direction (-1 OFF switch, 1 ON switch): -1; higher = weaker reporter binding
Procedure, shortened: as §1

Sequence | apparent KD of MS2 coat protein [1] | apparent KD of MS2 coat protein [2] | apparent KD of MS2 coat protein [3] | apparent KD of MS2 coat protein [4]
AAAAGACAUGAGGAUCACCCAUGUGAAAACGUGCGAGGAUAUGUAUGGAAACCAUACUGUACAGAAGGCGCGUGUC [SS1 - 83] | 24.4 nM | 32.3 nM | – | –
AAAAAACAUGAGGAUCACCCAUGUCAAAAGACGUGAGGAUAUGUACAGACUUCGGUCUGUACAGAAGGCACGUCAA [SS1 - 1043] | 15.9 nM | 20.4 nM | – | –
AAUAUAUUAAGUGAGGAUAUCAAGAAAAAAACAUGAGGAUCACCCAUGUGGGAAACAUGGUAGGGUGAGAAGGUACUUAAUAUAU [Samwise Clockwise 21 - Jieux - Same State 2] | 228 nM | 691 nM | – | –
AACAAUCUAUCUGAGGAUAUAUGUCAAAAGACAUGAGGAUCACCCAUGUAAAAACAUGAAAAGACAUAGAAGGCAGAUAGAUUGA [SS2: 1133] | 25.4 nM | 35.1 nM | – | –
AAAACCUGCGUCGAGGAUAUGUAGCCCACUACAUGAGGAUCACCCAUGUGGAUCUUACUGGGUCGACAGAAGGUGAAAGUUAGGC [Onlele] | 36.3 nM | 34.7 nM | – | –
AAAAAACAUGAGGAUCACCCAUGUGCAAAAUUCGCAGGAUAUUCCUCAAUUAAAUGAAAGGAAGAAGGGUGACAAA [Nob's Hobby 30 - Jieux - Same State 1] | 92.6 nM | 253 nM | – | –
AUAACACAUGAGGAUCACCCAUGUAGAAACAAGUCAGGAUAUGCAACCUCAUGAAAUAAAGCAGAAGGGACAAUAA [SS 1 Tesla 4] | 26.4 nM | 88 nM | – | –
AAAAAACAUGAGGAUCACCCAUGUGAAAAUAUGGGAGGAUAUCAUGGAAAAAAAAAAACAUGAGAAGGCCCAGAAA [SS! 1 MT 11] | 13.7 nM | 67.1 nM | – | –
AAAAAACAUGAGGAUCACCCAUGUCAAAAGACAUGAGGAUAUGUACAGACUUCGGUCUGUACAGAAGGCAUGAAAA [SS1 - 1011] | 31.6 nM | 524 nM | – | –
GGGAGGAAGAGAGAGGAUAUCCAAAGGAAAACAUGAGGAUCACCCAUGUAAAAGGUAGGAAAUUGGGAGAAGGCUCAAGAGACCG [salish99-ss2-057] | 34.2 nM | 37.9 nM | – | –
GAGAAACAUGAGGAUCACCCAUGUAGAAAUAUGGGAGGAUAUACAGAGACGAGAGUCAAAGUAGAAGGCCUAGAAG [77%, Mat - Mod of Eli - With 4 more G's] | 32.1 nM | 66.1 nM | – | –
AAAAGACAUGAGGAUCACCCAUGUUAAGACGUGGGAGGAUAUGCAUGGAAAACAUGCUGUGCAGAAGGCCCGUGUC [SS1 - 23] | 19.8 nM | 78.6 nM | – | –
GAAAAACAUGAGGAUCACCCAUGUAGAAAUAUGGGAGGAUAUACAAAGACGAAAGUCAAAGUAGAAGGCCCAUAAG [Starry Same State 1.6 (mat747 round 1 mod)] | 13.7 nM | 16.2 nM | – | –
AGACAUAAAAGAGAGGAUAUCCAAAAGAAAACAUGAGGAUCACCCAUGUAAAAGAAAAUAAAAUGGGAGAAGGCUCACAUACAGA [Topaz 35] | 19 nM | 50.4 nM | – | –
GAUCCGACUAGUCAGGAUAUCAGGCGUAAGACAUGAGGAUCACCCAUGUCCUAAGAACAAGUAACUGAGAAGGGACAGGGCGACC [JR_SS002_Sub413] | 62.3 nM | 62.4 nM | – | –
AAAAUAAAAAGGUAGGAUAUGGGUAAACCUACAUGAGGAUCACCCAUGUAAUAAAAAGAAAAAAACCAGAAGGACCAAAAUAAAA [72%, More Wateronthemoon, 9] | 12.8 nM | 55.2 nM | – | –
AAAAGGGCAGGAUAUACAUGAGGAUCACCCAUGUGAAAAAAAAAAAAAAAAAAAAAGUGUAGAAGGGUCAAAAA [Exclusion 3 - Omei 3] | – | – | 55.3 nM | 95.4 nM
AAGAAUCGAGGAUAUACAUGAGGAUCACCCAUGUAAAAGAAAGAAAAGGGAAAGAAAAGUAGAAGGCGAAAGAA [Userkhaure Setnakht] | – | – | 32.8 nM | 35.3 nM
AAGGGACAUGAGGAUCACCCAUGUCAGGAUAUGAUGCGAAUAAAGAAAGAAUAAAGCAUCAGAAGGGACACCAA [Mat - Exclusion 1 - Eli mod - D64] | – | – | 23 nM | 44.6 nM
AAGAAACAUGAGGAUCACCCAUGUGAGGAUAUGAAAAAGAAAAGAAAAGAAAGAAGAAUCAGAAGGCACAAAGG [Nebkaure Khety II] | – | – | 22.1 nM | 1850 nM
CUCUAGUCAGGAUAUUCAAGAAAAGAAAAGAAAGAAAAGAAGAAGAAGGGACAUGAGGAUCACCCAUGUAAGAA [EteRNA is fun!] | – | – | 46.7 nM | 46.5 nM

Sequence | apparent KD of MS2 coat protein [1] | apparent KD of MS2 coat protein [2] | apparent KD of MS2 coat protein [3] | apparent KD of MS2 coat protein [4]
AAAGGACAAGGAUAUACAUGAGGAUCACCCAUGUGUAAAACAUAAUAAAAUAACUUAUGUAGAAGGUGUCCAAA [Mat - Exclusion 3 - Eli mod - D100] | – | – | 30.5 nM | 173 nM
AGAUGACAAGGAUAUACUAGGGAUGAUAGUAGAGAAGAAGAACAUGAGGAUCACCCAUGUAGAAGGUGUAAGAA [JR_Exc002_Sub1702] | – | – | 70 nM | 61.1 nM
GAAAAACAUGAGGAUCACCCAUGUAAGGAUAUGCUGAAAAACACGGAAAAAACGUGCAGCAGAAGGUACAAAAG [Mat - Exclusion 1 - Eli mod - D91] | – | – | 16.7 nM | 131 nM
AAGGGACAUGAGGAUCACCCAUGUCAGGAUAUGCUAUGGAAAAUAAAAAUAAAACAUAGCAGAAGGGACACCAA [64%, Meechl, 3] | – | – | 25.9 nM | 40.3 nM
GAAAAGCAAGGAUAUACAUGAGGAUCACCCAUGUAACCUGAAAGCAUGAUCGGUGACAGUAGAAGGUGCGAAAU [Tixegerice] | – | – | 22.3 nM | 56.9 nM
AGAAUACAUGAGGAUCACCCAUGUGAGGAUAUGCAAAUAAAAAUAAAAUAAAAUAAAUGCAGAAGGCACGAAAG [EX 1 May 22] | – | – | 35.9 nM | 58.2 nM
AAGAACCAAGGAUAUACAUGAAAGAAAGAAAAGAAAAGAAAACAUGAGGAUCACCCAUGUAGAAGGUGGUAGAA [EteRNA is fun!] | – | – | 70.2 nM | 105 nM
AAAAAGGGAGGAUAUACGAAACAGGGAAACCUGAAAAGGAGACAUGAGGAUCACCCAUGUAGAAGGCCCAAGAA [Clint Eastwood 64% 4] | – | – | 25.3 nM | 53.3 nM
AGUAGAUCAGGAUAUACAUGAAAGAUCAAAAUGUCCAAUAUACAUGAGGAUCACCCAUGUAGAAGGGAUCUACA [Ex2 Design 115: Not so Super Stable 2] | – | – | 99.9 nM | 50.5 nM
UGCUAGUCAGGAUAUACGAACAUGUCAAAAGACGUGAAGGGACAUGAGGAUCACCCAUGUAGAAGGGACUAGCA [salish99-Ex2-18] | – | – | 37.5 nM | 121 nM
AAAACGGUAGGAUAUACAAUUGGGAACUAGACCGAAAAAAAACAUGAGGAUCACCCAUGUAGAAGGGCCAAAAA [Ex2 Malc#11] | – | – | 47.8 nM | 91.2 nM
ACUAGUACAGGAUAUACAUGAGGAUCACCCAUGUGAGAAUUAAGUGGCGUACCACAAAGUAGAAGGGUACUAGA [Mat - Exclusion 3 - JL mod - D14] | – | – | 34.3 nM | 152 nM
GAAAAACAUGAGGAUCACCCAUGUAAGGAUAUGCUAAAAAACACGGAAAACGUGAAUAGCAGAAGGUACAAAAG [Mat - Exclusion 1 - Eli mod - D85] | – | – | 25 nM | 46.8 nM
AAUCCACAUGAGGAUCACCCAUGUGAGGAUAUCGUGCAGAAAAAAAAAAAAAACUGCACGAGAAGGCACAUGGA | – | – | 35.1 nM | 20.2 nM
AACAGUACAGGAUAUACAUGAGGAUCACCCAUGUGAGAAUUAAAAGGCGUACCUAAAAGUAGAAGGGUACUGGA [JL Maslow Revisted mod 18] | – | – | 28.3 nM | 73.2 nM
AAAGUGUGAGGAUAUGUGAAAGGACACGAAAGUGACAAAGAACAGAAGGUACAUGAGGAUCACCCAUGUAAAAA [milkweed 20] | – | – | 27.4 nM | 23.5 nM
AACAGUACAGGAUAUACAUGAGGAUCACCCAUGUGGAAAUUAAGUGGCGUACCACAAAGUAGAAGGGUACUGGA [Moding Maslow revisited (73)] | – | – | 29.5 nM | 100 nM
AAAAAGUGAGGAUAUACAGAUAAAAAAACGAAAAAAAAUCUGUAGAAGGCACAUGAGGAUCACCCAUGUAAAAA [Ex 4 May 3] | – | – | 43.4 nM | 39 nM
AAAAAGUGAGGAUAUACAUGAGGAUCACCCAUGUAAAAGGUCAGGGUGGCGGAGGACGGUAGAAGGCGCAAAAA [Excls3-IX] | – | – | 34.5 nM | 40.2 nM
AAAAAACAUGAGGAUCACCCAUGUAAGGAUAUGCAAAAAAAAAAAAUAAAAAAAAAAAGCAGAAGGUACAUAGA [Starry Exclusion 1.7 (wbt round 1 mod)] | – | – | 36.6 nM | 40.6 nM
AACAGGUCAGGAUAUGUGCAACAGAAAAGAGCAGAAUAAGCACAGAAGGGACAUGAGGAUCACCCAUGUUAACA [May 27] | – | – | 24.6 nM | 32.2 nM
